Laboratory results published in patent US20190075806A1, “PROTEINASE B AND LACTASE SOLUTION USING ITS PROPERTIES AND METHOD FOR PRODUCING THE SAME” (GODO SHUSEI CO., LTD., priority 2016, published 2019).

Target: neutral lactase (GODO-YNL2; unfragmented high molecular fraction F-1, about 120 kDa) (yeast, Kluyveromyces genus) (UniProt P00723)
Assay: cell-based or functional assay

Chain of neutral lactase (GODO-YNL2; unfragmented high molecular fraction F-1, about 120 kDa) (yeast, Kluyveromyces genus) (P00723 whole entry, the tested form may be a part): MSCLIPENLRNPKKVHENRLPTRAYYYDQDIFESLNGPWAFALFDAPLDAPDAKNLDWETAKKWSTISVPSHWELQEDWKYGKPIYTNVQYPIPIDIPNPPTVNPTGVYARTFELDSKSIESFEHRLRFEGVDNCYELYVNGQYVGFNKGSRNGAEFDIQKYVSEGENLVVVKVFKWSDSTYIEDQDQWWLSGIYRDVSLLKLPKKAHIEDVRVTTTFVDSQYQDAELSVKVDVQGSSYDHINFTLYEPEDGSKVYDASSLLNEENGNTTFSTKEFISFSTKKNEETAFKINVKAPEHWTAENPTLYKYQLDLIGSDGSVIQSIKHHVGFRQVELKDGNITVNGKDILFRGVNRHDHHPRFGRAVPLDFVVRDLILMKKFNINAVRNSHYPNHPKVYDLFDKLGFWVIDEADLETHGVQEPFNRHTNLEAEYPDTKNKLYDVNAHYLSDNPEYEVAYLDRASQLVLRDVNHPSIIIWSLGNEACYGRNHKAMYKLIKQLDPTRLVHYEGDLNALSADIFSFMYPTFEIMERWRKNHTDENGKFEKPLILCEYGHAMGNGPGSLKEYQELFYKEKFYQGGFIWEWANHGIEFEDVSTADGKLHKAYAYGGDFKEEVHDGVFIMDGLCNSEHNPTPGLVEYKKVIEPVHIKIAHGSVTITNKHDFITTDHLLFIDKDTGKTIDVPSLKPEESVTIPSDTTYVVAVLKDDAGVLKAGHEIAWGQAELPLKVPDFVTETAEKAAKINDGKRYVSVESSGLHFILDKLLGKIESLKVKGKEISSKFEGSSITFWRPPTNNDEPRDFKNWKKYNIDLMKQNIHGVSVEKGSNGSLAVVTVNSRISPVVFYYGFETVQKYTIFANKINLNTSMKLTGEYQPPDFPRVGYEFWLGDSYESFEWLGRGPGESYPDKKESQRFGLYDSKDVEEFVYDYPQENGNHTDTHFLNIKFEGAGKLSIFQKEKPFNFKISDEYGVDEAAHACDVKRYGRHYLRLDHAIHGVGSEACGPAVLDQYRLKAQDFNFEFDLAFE

proteinase B derived from Kluyveromyces lactis (mature enzyme)
amount of PrB not causing fragmentation of lactase (30° C., 20 hours, SDS-PAGE): 0.26 ng per NLU
